Consider 1 variant from IntAct's records for PubMed 23403928.

First the molecules themselves.
B1: Mitochondrial import inner membrane translocase subunit TIM23 (Saccharomyces cerevisiae), P32897 (parent)
chain: MSWLFGDKTPTDDANAAVGGQDTTKPKELSLKQSLGFEPNINNIISGPGGMHVDTARLHPLAGLDKGVEYLDLEEEQLSSLEGSQGLIPSRGWTDDLCYGTGAVYLLGLGIGGFSGMMQGLQNIPPNSPGKLQLNTVLNHITKRGPFLGNNAGILALSYNIINSTIDALRGKHDTAGSIGAGALTGALFKSSKGLKPMGYSSAMVAAACAVWCSVKKRLLEK
partner: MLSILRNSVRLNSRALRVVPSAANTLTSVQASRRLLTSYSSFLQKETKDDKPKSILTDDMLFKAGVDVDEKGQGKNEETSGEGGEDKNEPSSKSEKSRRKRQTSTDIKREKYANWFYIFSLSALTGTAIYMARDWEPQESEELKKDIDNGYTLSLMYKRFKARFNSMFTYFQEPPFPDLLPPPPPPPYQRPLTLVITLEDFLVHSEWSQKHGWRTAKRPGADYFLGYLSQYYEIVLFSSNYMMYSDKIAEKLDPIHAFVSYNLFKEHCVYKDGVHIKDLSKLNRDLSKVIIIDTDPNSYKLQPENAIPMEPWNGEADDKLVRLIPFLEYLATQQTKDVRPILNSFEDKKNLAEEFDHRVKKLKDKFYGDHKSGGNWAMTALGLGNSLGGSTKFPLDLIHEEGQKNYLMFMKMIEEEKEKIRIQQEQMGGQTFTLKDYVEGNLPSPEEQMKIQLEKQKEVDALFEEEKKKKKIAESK

The variants in this experiment derive from B1. As to conditions: with tim50_yeast TIM50, Q02776.
As to Y70A;L71A, the “effect of a mutation on the interaction” value is listed as “disrupting interaction”.
